Laboratory results published in patent US20130064826A1 (KALOBIOS PHARMACEUTICALS, published 2013).

T1: EMR1 on human eosinophils (human, UniProt Q14246 21-886)
T1 construct: whole, on cells
T1 sequence (looked up): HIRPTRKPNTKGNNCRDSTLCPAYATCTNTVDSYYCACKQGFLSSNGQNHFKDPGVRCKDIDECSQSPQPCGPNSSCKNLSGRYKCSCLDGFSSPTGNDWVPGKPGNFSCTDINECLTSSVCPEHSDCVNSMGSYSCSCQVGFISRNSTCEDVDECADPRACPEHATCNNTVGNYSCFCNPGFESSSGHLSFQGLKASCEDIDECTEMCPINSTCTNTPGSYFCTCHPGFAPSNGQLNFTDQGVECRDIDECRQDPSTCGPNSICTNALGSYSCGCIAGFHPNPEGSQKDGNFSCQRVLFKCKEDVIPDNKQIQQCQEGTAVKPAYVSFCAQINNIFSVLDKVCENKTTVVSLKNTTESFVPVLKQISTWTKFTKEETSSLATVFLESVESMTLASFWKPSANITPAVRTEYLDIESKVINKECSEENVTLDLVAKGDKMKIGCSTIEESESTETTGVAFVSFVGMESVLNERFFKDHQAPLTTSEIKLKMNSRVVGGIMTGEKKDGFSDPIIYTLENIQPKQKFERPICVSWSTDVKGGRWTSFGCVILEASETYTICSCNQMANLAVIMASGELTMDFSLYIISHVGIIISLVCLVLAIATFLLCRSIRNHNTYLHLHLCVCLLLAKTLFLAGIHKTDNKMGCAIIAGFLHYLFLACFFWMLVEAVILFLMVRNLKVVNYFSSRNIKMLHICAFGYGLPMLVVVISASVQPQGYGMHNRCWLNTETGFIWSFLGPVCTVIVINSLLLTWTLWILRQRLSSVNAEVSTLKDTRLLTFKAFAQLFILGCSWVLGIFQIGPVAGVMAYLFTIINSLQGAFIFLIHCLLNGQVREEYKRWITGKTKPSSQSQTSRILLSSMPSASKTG

T2: EMR2 (UniProt Q9UHX3 24-540, limits assumed)
T2 sequence (looked up): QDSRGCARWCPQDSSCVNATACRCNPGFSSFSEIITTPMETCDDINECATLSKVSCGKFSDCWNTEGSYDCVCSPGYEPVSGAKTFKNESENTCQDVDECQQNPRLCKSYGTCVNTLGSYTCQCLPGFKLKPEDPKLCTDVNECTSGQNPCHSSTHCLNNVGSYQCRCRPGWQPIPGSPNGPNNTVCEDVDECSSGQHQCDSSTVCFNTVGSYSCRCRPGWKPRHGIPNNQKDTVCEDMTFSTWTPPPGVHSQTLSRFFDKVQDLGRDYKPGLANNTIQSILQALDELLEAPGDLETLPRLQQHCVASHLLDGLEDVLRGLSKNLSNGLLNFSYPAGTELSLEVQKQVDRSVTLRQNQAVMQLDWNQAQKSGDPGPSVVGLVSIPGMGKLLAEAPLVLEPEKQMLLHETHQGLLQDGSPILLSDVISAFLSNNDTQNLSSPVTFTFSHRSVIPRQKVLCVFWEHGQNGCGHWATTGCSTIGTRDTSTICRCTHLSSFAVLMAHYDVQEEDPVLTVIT

T3: CD97 (UniProt P48960 21-552, limits assumed)
T3 sequence (looked up): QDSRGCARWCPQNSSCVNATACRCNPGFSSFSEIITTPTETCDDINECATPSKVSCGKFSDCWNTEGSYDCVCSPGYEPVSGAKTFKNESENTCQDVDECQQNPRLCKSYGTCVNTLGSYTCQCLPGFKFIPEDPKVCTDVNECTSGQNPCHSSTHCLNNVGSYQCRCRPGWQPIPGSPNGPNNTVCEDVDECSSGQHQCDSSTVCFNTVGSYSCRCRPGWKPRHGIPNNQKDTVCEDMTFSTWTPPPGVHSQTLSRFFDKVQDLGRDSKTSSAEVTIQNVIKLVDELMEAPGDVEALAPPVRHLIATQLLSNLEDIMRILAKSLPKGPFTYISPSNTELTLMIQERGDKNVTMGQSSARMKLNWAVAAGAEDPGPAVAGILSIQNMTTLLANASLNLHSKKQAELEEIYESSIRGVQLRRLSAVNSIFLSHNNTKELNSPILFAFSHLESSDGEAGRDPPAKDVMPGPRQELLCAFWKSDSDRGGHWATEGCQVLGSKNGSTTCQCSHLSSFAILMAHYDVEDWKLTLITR

T4: Peptide 1
T4 construct: also called 27 mer; EMR1 ELD-6 271-297
T4 peptide: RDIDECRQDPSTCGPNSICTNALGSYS

T5: Peptide 4
T5 construct: also called 20 mer; EMR1 ELD-6 271-290
T5 peptide: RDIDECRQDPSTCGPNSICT

T6: Peptide 7
T6 construct: also called 18 mer; EMR1 ELD-6 271-288
T6 peptide: RDIDECRQDPSTCGPNSI


Legend:
[1] = biological target: T1, EMR1 on human eosinophils; test: flow cytometry on human eosinophils
Description: Splenic B cells from mice immunized with purified human EMR1-Fc fusion protein were fused with SP2/0-Ag14 cells to generate hybridoma cell lines. Supernatants containing antibody from monoclonal lines were tested for binding to recombinant human EMR1 by ELISA. Antibodies that bound EMR1 were tested for binding to human eosinophils by flow cytometry. Polymorphonuclear-cell rich fractions from buffy coat blood were obtained by Ficoll gradient centrifugation and residual red blood cells were lysed with ammonium chloride (ACK lysis buffer). Eosinophils were isolated by negative selection using a MACS eosinophil isolation kit (Miltenyi) and incubated with 10 μg/ml rat IgG and 2% BSA to block nonspecific IgG binding before addition of anti-EMR1 antibody or isotype control antibody. Anti-mouse FITC antibody was used for detection of bound antibodies on a FACSCalibur flow cytometer.

EMR2 = biological target: T2, EMR2; test: not described
CD97 = biological target: T3, CD97; test: not described
Peptide 1 = biological target: T4, Peptide 1; test: biolayer interferometry (ForteBio Octet)
Peptide 4 = biological target: T5, Peptide 4; test: biolayer interferometry (ForteBio Octet)
Peptide 7 = biological target: T6, Peptide 7; test: biolayer interferometry (ForteBio Octet)

binding result [1] | binding result (EMR2) | binding result (CD97) | binding result (Peptide 1) | binding result (Peptide 4) | binding result (Peptide 7) | Binder
binds | no binding | no binding |  |  |  | monoclonal antibody 19-1E7 (antibody, V domains shown, Murine hybridoma antibody raised against human EMR1-Fc; Hybridoma supernatant was used in the screening) VH: QVQLKESGPGLVAPSQSLSITCTVSGFSLTNFGIHWVRQPPGKGLEWLGVIWSGGGTNYNSALMSRLSISKDNSKSQVFLKMNSLQTDDTAIYYCVSIYYRGFDSWGQGTTLTVSS VL: DVFMTQAPLSLPVSLGDQASISCRSSQSIVHSNGNTYLEWYLQKPGQSPKLLIYRVSNRFSGVPDRFSGSGSGTDFTLKISRVEAEDLGVYYCFQGSHVPLTFGAGTRLELK
 |  |  | binds | binds | binds | chimeric 19-1E7 IgG1k antibody (c1E7) (antibody, V domains shown, 19-1E7 variable regions combined with human gamma-1 Fc and kappa constant regions (IgG1 kappa); Made in fucosylated (CHOK1 SV) and non-fucosylated (MS704-PF) forms; also called chimeric 1E7) VH: QVQLKESGPGLVAPSQSLSITCTVSGFSLTNFGIHWVRQPPGKGLEWLGVIWSGGGTNYNSALMSRLSISKDNSKSQVFLKMNSLQTDDTAIYYCVSIYYRGFDSWGQGTTLTVSS VL: DVFMTQAPLSLPVSLGDQASISCRSSQSIVHSNGNTYLEWYLQKPGQSPKLLIYRVSNRFSGVPDRFSGSGSGTDFTLKISRVEAEDLGVYYCFQGSHVPLTFGAGTRLELK
